The supplement of paper PMC9170038

Tested on: MS2 coat protein
Assay: apparent KD of MS2 coat protein; designed switch direction (-1 OFF switch, 1 ON switch): -1; higher = weaker reporter binding
Procedure, shortened: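 Apparent KD, taken as the median over clusters for each design, was obtained by curve-fitting normalised cluster fluorescence. Designed RNA switches had been transcribed on Illumina chips by stalled E. coli RNA polymerase and titrated with SNAP-549-labelled MS2 coat protein, doubling from 0.7 or 1.5 nM to 3 µM.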

[1] = input ligand: microRNA oligo, concentration not stated
[2] = Eterna round: R95, input ligand: FMN 200 uM
[3] = Eterna round: R95, input ligand: microRNA oligo, concentration not stated
[4] = Eterna round: R95, input ligand: none

| Sequence | apparent KD of MS2 coat protein (input ligand: FMN 200 uM) [nM] | apparent KD of MS2 coat protein [1] [nM] | apparent KD of MS2 coat protein (input ligand: none) [nM] | apparent KD of MS2 coat protein [2] [nM] | apparent KD of MS2 coat protein [3] [nM] | apparent KD of MS2 coat protein [4] [nM] |
| --- | --- | --- | --- | --- | --- | --- |
| GAUCCUUUUACGGACGUCUCGAAACAUGAGGAUCACCCAUGUGAGGAUAUCUCCGAGAGAUCGGCAGAGAAGGCACAAUAACAA [MOD Eternabot solution 19 score 84.66] (Eterna round: R96, puzzle: Exclusion NG 3) | 91.4 | 19.7 | 50.3 |  |  |  |
| GAUCGACAUGAGGAUCACCCAUGUCAGGAUAUCUACAUUGAAGCUGCGGCUUCAAUGUAGAGAAGGGAUAUAAU [E1/16-B1] (Eterna round: R97, puzzle: Exclusion 1) | 36.9 |  | 27.2 |  |  |  |
| GAUGUGGGUUUCCGGAGGAACAUGAGGAUCACCCAUGUAGAAGUUGGAGGGAUAACGCUUUUUGCUCGUUACACGUG [JR_SV3TOV1_Sub055] (puzzle: Sensor v3, turn-off variant 1) |  |  |  | 178 | 170 | 221 |
| GAUUAAUGCAAGGAUAUGCUAUUAUUUUAUUUUGCAGAAGGUGCAACAUGAGGAUCACCCAUGUUGGAGGGUAU [JR_E6_Sub026] (puzzle: Exclusion 6) |  |  |  |  | 17.4 |  |
| GAUUAGAUAGGAUAUACAGGCUCGUCUUUAUAUUGAUCCCGACAUGAGGAUCACCCAUGUAGAAGGAUUAGAUU [Mod 30 - Jieux - Exclusion 2] (Eterna round: R97, puzzle: Exclusion 2) | 25.7 |  | 26.6 |  |  |  |
| GAUUAUGCGAGCUUUAGGGACAUGAGGAUCACCCAUGUUCGUCUUAUUAAUCUGGGUACACUGGCAUACCUAAAUCU [JMF 7] (puzzle: Sensor v3, turn-off variant 1) |  |  |  | 26.7 | 37.7 | 28.1 |
| GAUUAUGCGAGCUUUAGGGACAUGAGGAUCACCCAUGUUCGUCUUAUUAGUCUAGGUACACUAACAUACCUAAAUCU [JMF 18] (puzzle: Sensor v3, turn-off variant 1) |  |  |  | 21.3 | 38.8 | 21.9 |
| GAUUAUGCGAGCUUUAGGGACAUGAGGAUCACCCAUGUUCGUCUUAUUAGUCUAGGUGCGCUAACAUACCUAAAUCU [JMF 50] (puzzle: Sensor v3, turn-off variant 1) |  |  |  | 20.7 | 35.4 | 21.6 |
| GAUUAUGCGAGCUUUAGGGACAUGAGGAUCACCCAUGUUCGUCUUAUUGAUCUAGGUACACUGACAUACCUAAAUCU [JMF 66] (puzzle: Sensor v3, turn-off variant 1) |  |  |  | 23.7 | 39.9 | 24.5 |
| GAUUAUGCGAGCUUUAGGGACAUGAGGAUCACCCAUGUUCGUCUUAUUGAUCUGGAUGCACUGACAUACCUAAAUCU [JMF 80] (puzzle: Sensor v3, turn-off variant 1) |  |  |  | 29 | 37.5 | 28.3 |
| GAUUAUGCGAGCUUUAGGGACAUGAGGAUCACCCAUGUUCGUCUUAUUGGUCUAAAUGCACUAACAUACCUAAAUCU [JMF 23] (puzzle: Sensor v3, turn-off variant 1) |  |  |  | 17.7 | 22.4 | 19.3 |
| GAUUAUGCGAGCUUUAGGGACAUGAGGAUCACCCAUGUUCGUCUUAUUGGUCUGAAUACACUAACAUACCUAAAUCU [JMF 11] (puzzle: Sensor v3, turn-off variant 1) |  |  |  | 17.4 | 33.7 | 21.7 |
| GAUUGACAUGAGGAUCACCCAUGUGAGGAUAUCGGCCGGACCGUGCCGGCUUCCGUCGCGAGAAGGCGCAUAGG [Exclusion 1 V40] (puzzle: Exclusion 1) |  |  |  | 49.5 | 32 | 37.3 |
| GAUUGACAUGAGGAUCACCCAUGUGAGGAUAUCGGCUGGACCGUGUUGGCUUCGGUUUCGAGAAGGCGCAUAGG [Exclusion 1 V45] (puzzle: Exclusion 1) |  |  |  | 52.9 | 90.1 | 102 |
| GAUUGACAUGAGGAUCACCCAUGUGAGGAUAUCGGCUGGACCGUGUUGGCUUGCCUUUCGAGAAGGCGCAUAGG [Exclusion 1 V48] (puzzle: Exclusion 1) |  |  |  |  | 32.4 |  |
| GAUUGACAUGAGGAUCACCCAUGUGAGGAUAUCGGCUGGACCGUGUUGGCUUGGCUUUCGAGAAGGCGCAUAGG [Exclusion 1 V47] (puzzle: Exclusion 1) |  |  |  | 53.9 | 42.6 | 53.7 |
| GAUUUAGAGCAGGAUAUCAUAGAAUUGUAUGAAUGAGAAGGGCUCACAUGAGGAUCACCCAUGUGGUCCUAGAU [JL Dibiri mod 21] (puzzle: Exclusion 6) |  |  |  |  | 21.7 |  |
| GCAAGAAUAGGAUAUACACCAUGCCAGCUUCUAUACAACGCACAUGAGGAUCACCCAUGUAGAAGGGUUCUCUC [Exclusion-2-#11] (Eterna round: R97, puzzle: Exclusion 2) | 336 |  | 323 |  |  |  |
| GCAAGCUUAAUCUGUAUGAACAUGAGGAUCACCCAUGUAUAAGGGAAUUCUUUUGGGUUUUUUAUUGCUCGUCUUAU [JR_STOV1_Sub024] (Eterna round: R97, puzzle: Sensor, turn-off variant 1) | 260 |  | 329 |  |  |  |
| GCAAGCUUUUGCUCGUCUUACAUGAGGAUCACCCAUGUCGGGCCCGGGCUUCGUGGCCGGGCCCGCCGGGCGCCGGG [-37, -64.6 kcal, A 10%] (Eterna round: R97, puzzle: Sensor, turn-off variant 1) | 56.5 |  | 70.4 |  |  |  |
| GCAAGCUUUUUGCGUAGGAACAUGAGGAUCACCCAUGUGCAUGGAAAGAUGGGAAAGAAAGGAGAGAAAGAUGAAAG [Alacar 1] (Eterna round: R97, puzzle: Sensor, turn-off variant 1) | 101 |  | 88.1 |  |  |  |
| GCACGAAGUGGAGGAUAUCUGGGCGAGGAGCGCAGAGAAGGCCACAUGAGGAUCACCCAUGUGUUCCACGGAUCGCAAACGUGC [exng1 ex2] (Eterna round: R96, puzzle: Exclusion NG 1) | 69.3 | 14.4 | 20.9 |  |  |  |
| GCACGGAGUGUAGGAUAUCUGUGCGAUUAGCUCAGAGAAGGACACAUGAGGAUCACCCAUGUGUAACUCAAUACUAAUCCGUGC [Eli exng1 - 077] (Eterna round: R96, puzzle: Exclusion NG 1) | 10.6 | 7.89 | 10.7 |  |  |  |
| GCACGGUAAGUGAGGAUAUACCUCUGGAUACAGAGGUAGAAGGCACAUGAGGAUCACCCAUGUCUAUACCGUGC [Fiskers BMX 4 - 81] (puzzle: Brourd's mod of Exclusion 4) |  |  |  | 20.3 | 13.6 | 13.8 |
| GCACGGUAAGUGAGGAUAUACCUCUGGAUACAGAGGUAGAAGGCACAUGAGGAUCACCCAUGUUCCUGCCGUGC [Fiskers BMX 4 - 89] (puzzle: Brourd's mod of Exclusion 4) |  |  |  |  | 15.9 |  |
| GCACUGCGAGGAUAUACAUGAGGAUCACCCAUGUGUCGGCAGACUUGUUUGGUCUAAGGUAGAAGGCGCGUAAA [JR_Ex3_Sub003] (Eterna round: R97, puzzle: Exclusion 3) | 145 |  | 39.7 |  |  |  |
